For one molecule, Kd, koff and kon results are on record in paper PMC10454365.

The target of this experiment is Recombinant human LY6K protein (LY6K-Wt) (human) (UniProt Q17RY6). In words: SPR; LY6K immobilised on a CM5 chip by amine coupling (~6200–7000 RU); TbR1 injected at various concentrations, 50 μL/min; Biacore T200, 25 °C; running buffer PBS-P + 5% DMSO; 1:1 kinetics binding model.

B1: Recombinant human TbR1 protein (receptor)
chain: LQCFCHLCTKDNFTCVTDGLCFVSVTETTDKVIHNSMCIAEIDLIPRDRPFVCAPSSKTGSVTTTYCCNQDHCNKIELPTTVKSSPGLGPVEL
For the molecule B1, the Kd was found to be 9.2 nM, the koff was determined as 0.000468 s⁻¹ and the on-rate (kon) was found to be 51000 M⁻¹ s⁻¹.
